Values quoted from earlier work as cited in article PMC2786309 (Bioconjugate chemistry, 2009).

How the values were obtained:
[1] = tested on: MC1 receptor present on melanoma cells; settings: statement in method text, no reference given
[2] = tested on: B16/F1 melanoma-bearing C57 mice; settings: mouse, in vivo

## NDP-MSH
[1]
  Affinity for the MC1 receptor: picomolar affinity

## ^111In-DOTA-Gly-Glu-c[Lys-Nle-Glu-His-DPhe-Arg-Trp-Gly-Arg-Pro-Val-Asp] (FRWGRPVD; not fully specified; 111In-DOTA, Gly-Glu-Lys-Nle-Glu-His N-term, cyclic; printed: Phe-Arg-Trp-Gly-Arg-Pro-Val-Asp) [^111In-DOTA-GlyGlu-CycMSH]
[2]
  Renal uptake reduction compared to 111In-DOTA-CycMSH: 44%
[2]; 2 h
  Melanoma uptake: 10.40 ± 1.40 % ID/g

## ^111In-DOTA-[β-Ala^3, Nle^4, Asp^5, D-Phe^7, Lys^10]-α-MSH3-10 [^111In-DOTA-MSHoct]
[2]; 4 h
  Tumor uptake: 4.31 ± 0.30 % ID/g
